From patent US20250277196A1, “EPSPS MUTANTS AND METHOD OF ITS USES” (CROPEDIT BIOTECHNOLOGY INC., priority 2021, published 2025)

Columns and labels:
[1] = test system: E. coli lacking EPSPS; assay: Glyphosate resistance comparison among rice EPSPS mutants: growth of transformed E. coli on M9 medium with different glyphosate concentrations; format: cell-based, Escherichia coli
Procedure: a) PCR system: According to the primer and template mixed PCR system corresponding to the target vector in the above table, the forward primer was 1.25 μl, the reverse primer was 1.25 μl, the template plasmid was 2 μl, the Q5 PCR master mix was 12.5 μl, and ddH2O was […].
b) PCR reaction conditions were as following: the annealing temperature was set according to the annealing temperature corresponding to the target carrier in the above table.
c) Took out 5 μl of the obtained PCR product and added it to the loading buffer for agarose gel electrophoresis. A band with a size of about 4.5 kb was considered successful.
d) Used NEB's KLD enzyme mixture to remove the template and connected the PCR product. The connection system was 5 μl KLD buffer, 1 μl KLD MIX, 1 μl PCR product, and ddH2O 3 μl. After ligating at room temperature for 5 min, transformed it into E. coli.
e) The ligation product was transformed into Dh5a competent E. coli lacking EPSPS. After resuscitation, the cells were washed twice with M9 medium, and then the washed cells were spread on M9 medium and cultured for 48 h. Sequenced the grown single colony (Tsingke Biological Technology Co., Ltd.), and selected the correct mutant to save for future use.
OsWt represents the wild type rice EPSPS(SEQ ID NO:2). […] OsGA represents the mutated rice EPSPS with mutation G172A. (SEQ ID NO:7) OsPS represents the mutated rice EPSPS with mutation P177S. (SEQ ID NO:8) OsGAPS represents the mutated rice EPSPS with mutation G172A and P177S. (SEQ ID NO:9) OsGAVA represents the mutated rice EPSPS with mutation G172A and V403A(SEQ ID NO:4). OsPSVA represents the mutated rice EPSPS with mutation P177S and V403A(SEQ ID NO:5). OsGPV represents the mutated rice EPSPS with mutation G172A, P177S and V403A(SEQ ID NO:6). OsTIPS represents the mutated rice EPSPS with mutation T173I and P177S. (SEQ ID NO: 35). OsTIPT represents the mutated rice EPSPS with mutation T173I and P177T. (SEQ ID NO:36). OsTIPSVA represents the mutated rice EPSPS with mutation T173I, P177S and V403A. (SEQ ID NO:37). OsTIPTVA represents the mutated rice EPSPS with mutation T173I, P177T and V403A. (SEQ ID NO:38). CP4 represents the wild type EPSPS from Agrobacterium tumefaciens. (SEQ ID NO:39)
Each product obtained from the above steps were transformed into E. coli lacking EPSPS. By detecting the growth of the transformed Escherichia coli on M9 medium containing different glyphosate concentrations (0 mM, 0.5 mM, 2 mM, 4 mM, 5 mM, 25 mM, 75 mM, 100 mM), the 1 mM glyphosate here was equivalent to […] glyphosate acid, the glyphosate resistance of rice EPSPS mutants was verified.

[2] = test system: T1 generation transgenic rice; assay: Glyphosate resistance of T1 generation transgenic rice seedlings (FIG. 10); format: in vivo; settings: 100 ppm glyphosate aqueous solution (Roundup), cultivated 10 days; wild-type rice control significantly inhibited and died
Text: The rice seed used in this example is RICE KENG XIANG DA008-169, which is publicly available.
Nucleic acid sequence encoding OsGPV mutants (comprising G172A, P177S and V403A) (SEQ ID NO:6) were inserted into the plant expression vector according to the conventional methods to obtain the pk510 vector expressing the OsGPV gene. (see FIG. 9)
1) The transgenic vector pk510 was introduced into Agrobacterium EHA105 to obtain recombinant Agrobacterium.
2) One to five days before the transformation experiment, recombinant Agrobacterium was inoculated on YEB solid medium containing 50 mg/L kanamycin and 15 mg/L rifampicin. The medium was sealed in the dish with 3M tape; kept at temperature at 28° C. in an inverted dish orientation and cultured it in dark for one to five days.
3) The bacteria was scraped at the “Z”-shaped tail with the inoculation ring, and gently suspended in […] NB liquid medium containing 2 mg/L 2,4-dichlorophenoxyacetic acid to make the concentration of the bacteria liquid reach approximately O.D. 600=0.1, and then reserve the make Agrobacterium infection solution.
4) After removing the rice seed coat, the rice seed was placed in a triangular flask, washed 3 times with sterile water. 75% alcohol was added to immerse the seeds, shaken gently for 1 min, and the alcohol discarded. […]

B1: OsGPV: mutated rice EPSPS with mutation G172A, P177S and V403A (SEQ ID NO:6) (protein)
chain: MAAKAEEIVLQPIREISGAVQLPGSKSLSNRILLLSALSEGTTVVDNLLNSEDVHYMLEALKALGLSVEADKVAKRAVVVGCGGKFPVEKDAKEEVQLFLGNAATAMRSLTAAVTAAGGNATYVLDGVPRMRERPIGDLVVGLKQLGADVDCFLGTECPPVRVKGIGGLPGGKVKLSGSISSQYLSALLMAAPLALGDVEIEIIDKLISIPYVEMTLRLMERFGVKAEHSDSWDRFYIKGGQKYKSPGNAYVEGDASSASYFLAGAAITGGTVTVQGCGTTSLQGDVKFAEVLEMMGAKVTWTDTSVTVTGPPREPYGKKHLKAVDVNMNKMPDAAMTLAVVALFADGPTAIRDVASWRVKETERMVAIRTELTKLGASVEEGPDYCIITPPEKLNITAIDTYDDHRMAMAFSLAACADVPVTIRDPGCTRKTFPNYFDVLSTFVRN
modifications: This sequence is synthesized in lab.
glyphosate resistance compared with CP4 EPSPS ([1]; 100 mM glyphosate medium, FIG. 2): comparable
glyphosate concentration of the medium on which the strain can grow ([1]; M9 medium, tested 0, 0.5, 2, 4, 5, 25, 75, 100 mM glyphosate, FIG. 2, FIG. 3): 100 mM
growth of transgenic rice seedlings in glyphosate solution [2]: not significantly affected
